The record followed here is PMC4678825.

The target in this test is Qβ replicase core complex (β-subunit, EF-Tu and EF-Ts), wild type (E. coli | bacteriophage Qβ). The test can be described thus: SEC-MALS. For orientation: Size exclusion chromatography separates by hydrodynamic size, large species first.

One may read the stoichiometry N as the number of molecules, sites or subunits per partner or assembly. “Qβ replicase core complex (β-subunit, EF-Tu and EF-Ts), wild type” gave a stoichiometry N of 2.
